Molecular target: His-BRD4-N (amino acids 1-500), O60885

B1: GST-SPOP (protein)
chain: MSRVPSPPPPAEMSSGPVAESWCYTQIKVVKFSYMWTINNFSFCREEMGEVIKSSTFSSGANDKLKWCLRVNPKGLDEESKDYLSLYLLLVSCPKSEVRAKFKFSILNAKGEETKAMESQRAYRFVQGKDWGFKKFIRRDFLLDEANGLLPDDKLTLFCEVSVVQDSVNISGQNTMNMVKVPECRLADELGGLWENSRFTDCCLCVAGQEFQAHKAILAARSPVFSAMFEHEMEESKKNRVEINDVEPEVFKEMMCFIYTGKAPNLDKMADDLLAAADKYALERLKVMCEDALCSNLSVENAAEILILADLHSADQLKTQAVDFINYHASDVLETSGWKSMVVSHPHLVAEAYRSLASAQCPFLGPPRKRLKQS
With B1 the “in vitro ubiquitination assay (western blot)” value was “The SPOP-CULLIN3-RBX1 complex was shown to catalyzed BRD4 ubiquitination in vitro”.

From patent US20220016130
